Assay results published in US20220081485A1 (BEIJING WISDOMAB BIOTECHNOLOGY, published 2022).

How the values were obtained:
[1] = target: T1, mmIL4R-mFc (Macaca mulatta IL-4R extracellular domain fused to murine IgG2a Fc) (Macaca mulatta); assay: SPR Biacore X100, antibody captured, mmIL4R-mFc as analyte
T1 chain: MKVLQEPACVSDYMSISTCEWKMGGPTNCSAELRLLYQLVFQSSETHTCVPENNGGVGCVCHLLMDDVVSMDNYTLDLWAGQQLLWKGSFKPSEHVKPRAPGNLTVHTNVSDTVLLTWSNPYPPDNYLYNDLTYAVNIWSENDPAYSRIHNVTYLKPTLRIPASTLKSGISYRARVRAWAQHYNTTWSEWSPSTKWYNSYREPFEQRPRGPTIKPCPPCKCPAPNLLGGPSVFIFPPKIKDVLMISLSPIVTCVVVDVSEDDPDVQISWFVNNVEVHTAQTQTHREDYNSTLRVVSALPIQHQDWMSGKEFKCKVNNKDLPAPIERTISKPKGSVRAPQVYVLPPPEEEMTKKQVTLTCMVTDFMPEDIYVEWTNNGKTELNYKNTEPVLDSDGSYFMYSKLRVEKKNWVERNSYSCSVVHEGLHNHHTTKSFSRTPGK
Protocol: (§1) The affinity of each anti-IL4R IgG4 chimeric antibody was determined using Biacore X100. Amino coupling kits, human antibody capture kits, CM5 chips, 1× HBS-EP (pH 7.4) and all reagents used in this assay were purchased from GE Healthcare. According to the instructions in the kits, an antibody against the human Fc region was coupled to the surface of the CM5 chip using an amino coupling method, and antibody proteins were diluted to appropriate concentrations to ensure that about 100 RU of the antibodies was captured by the antibody against the human Fc. IL4R-his was set to a series of concentration gradients (100 nm, 33.3 nm, 11.1 nm, 3.7 nm, 1.23 nm) and flew through the surface of the stationary phase.
Similarly, anti-IL4R monoclonal antibodies were captured and mmIL4R-mFc was set to a series of concentration gradient (50 nm, 16.7 nm, 5.56 nm, […], 0.62 nm).

[2] = target: T2, human IL-4R on cells (HEK-Blue IL-4/IL-13 cells, TF-1 cells, human PBMCs) (human, UniProt P24394 26-825); assay: cell-based or functional assay
T2 sequence (looked up): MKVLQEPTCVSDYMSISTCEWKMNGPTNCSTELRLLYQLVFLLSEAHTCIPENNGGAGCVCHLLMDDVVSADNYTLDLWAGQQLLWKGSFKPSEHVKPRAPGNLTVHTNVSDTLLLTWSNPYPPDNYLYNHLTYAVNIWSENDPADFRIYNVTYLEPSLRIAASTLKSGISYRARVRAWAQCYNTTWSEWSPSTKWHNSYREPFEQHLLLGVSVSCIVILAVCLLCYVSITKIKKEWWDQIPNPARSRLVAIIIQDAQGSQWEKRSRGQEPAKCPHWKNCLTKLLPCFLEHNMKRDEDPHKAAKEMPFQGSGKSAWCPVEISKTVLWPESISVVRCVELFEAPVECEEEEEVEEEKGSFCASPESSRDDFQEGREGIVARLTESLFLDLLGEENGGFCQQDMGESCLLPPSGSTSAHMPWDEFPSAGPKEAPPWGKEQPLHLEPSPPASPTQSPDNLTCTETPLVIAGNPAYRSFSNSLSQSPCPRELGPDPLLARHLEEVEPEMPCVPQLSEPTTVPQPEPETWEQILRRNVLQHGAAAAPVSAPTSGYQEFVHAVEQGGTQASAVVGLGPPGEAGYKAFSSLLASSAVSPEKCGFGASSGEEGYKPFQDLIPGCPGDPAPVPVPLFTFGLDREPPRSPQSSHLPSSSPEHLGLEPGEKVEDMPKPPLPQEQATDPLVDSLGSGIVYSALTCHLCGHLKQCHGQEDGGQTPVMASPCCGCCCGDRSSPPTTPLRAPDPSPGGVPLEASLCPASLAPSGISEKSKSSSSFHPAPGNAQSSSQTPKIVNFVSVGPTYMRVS

[3] = target: T2, human IL-4R on cells (HEK-Blue …); assay: cell-based or functional assay; remark: listed apart in the source
[4] = target: T2, human IL-4R on cells (HEK-Blue …); assay: cell-based or functional assay; remark: listed apart in the source
[5] = target: T2, human IL-4R on cells (HEK-Blue …); assay: cell-based or functional assay; remark: listed apart in the source
[6] = target: T3, recombinant hIL4R-his (human IL-4R extracellular domain with C-terminal His tag) (human (Homo sapiens), UniProt P24394 26-232); assay: SPR Biacore X100, antibody captured by anti-human Fc, IL4R-his as analyte, 25 C
T3 construct: The tag was added at the C-terminus; The protein was expressed in HEK293 cells; also called huIL4R
T3 sequence: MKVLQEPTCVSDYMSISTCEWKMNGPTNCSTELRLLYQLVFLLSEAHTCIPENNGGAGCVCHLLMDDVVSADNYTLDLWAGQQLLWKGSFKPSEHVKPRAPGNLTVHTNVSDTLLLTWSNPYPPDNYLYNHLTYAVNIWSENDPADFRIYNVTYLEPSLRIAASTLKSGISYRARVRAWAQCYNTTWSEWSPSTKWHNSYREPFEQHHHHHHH
Protocol: as §1

[7] = target: T4, IL4R-mFc (human IL-4R extracellular domain fused to murine IgG2a Fc) (human (Homo sapiens)); assay: blocking ELISA: antibody gradient with IL4-his at a fixed concentration on coated IL4R-mFc; bound IL4-his detected with HRP-mouse-anti-his IgG
T4 construct: also called antigen IL4R-mFc
T4 sequence (chain, as listed by the source): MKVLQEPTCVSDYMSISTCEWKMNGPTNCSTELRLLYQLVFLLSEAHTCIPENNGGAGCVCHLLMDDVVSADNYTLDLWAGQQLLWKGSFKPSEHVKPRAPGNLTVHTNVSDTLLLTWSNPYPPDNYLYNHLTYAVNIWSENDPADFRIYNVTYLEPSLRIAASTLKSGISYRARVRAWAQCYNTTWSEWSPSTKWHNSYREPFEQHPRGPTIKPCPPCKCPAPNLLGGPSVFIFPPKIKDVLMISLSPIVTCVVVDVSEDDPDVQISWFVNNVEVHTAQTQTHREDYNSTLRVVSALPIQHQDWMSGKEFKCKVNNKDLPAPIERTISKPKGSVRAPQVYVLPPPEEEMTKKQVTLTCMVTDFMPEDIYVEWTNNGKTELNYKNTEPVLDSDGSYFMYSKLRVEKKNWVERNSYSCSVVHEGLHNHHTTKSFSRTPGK
Protocol: 96 well plates were coated with antigen IL4R-mFc (3 μg/ml, 100 μI/well) overnight at 4° C.

[8] = target: T2, human IL-4R on cells (HEK-Blue …); assay: cell-based or functional assay; remark: listed apart in the source

B1: L18D7-IgG4 (antibody, V domains shown)
VH: EVQLVESGGGLVQPGGSLRLSCAVSGFTFSSYAMSWVRQAPGKGLEWVSSITGGGGGIYYADSVKGRFTISRDNSKNTVYLQMNSLRAEDTAVYYCAKDRISITIRPRYFGLDFWGQGTTVTVSS
VL: DIVMTQSPLSLPVTPGEPASISCRSSQSLLYSIGYNYLDWYLQKSGQSPQLLIYLGSNRASGVPDRFSGSGSGTDFTLKISRVEAEDVGFYYCMQSFKAPYTFGQGTKLEIKR
notes: also called S1E6 light chain mutant L18D7
- Kd [1]: 1.67 nM
- koff [1]: 0.000984 s⁻¹
- kon [1]: 590000 M⁻¹ s⁻¹
- IC50 values in inhibition of IL-13 (SEAP, HEK-Blue IL-4/IL-13 cells) [2]: 0.0102 nM
- IC50 values in inhibition of IL-4 (SEAP, HEK-Blue IL-4/IL-13 cells) [3]: 0.0484 nM
- IC50 values in inhibition of IL-4 (IL-4 induced proliferation of TF-1 cells, CellTiter-Glo) [4]: 0.116 nM
- IC50 values in inhibition of CD23 expression on human PBMCs (IL-4 stimulated, flow cytometry) [5]: 0.0268 nM
- Kd [6]: 0.48 nM
- koff [6]: 0.000143 s⁻¹
- kon [6]: 297000 M⁻¹ s⁻¹
- IC50 (read off the curve) [7]: ~10 nM

B2: L28C9-IgG4 (antibody, V domains shown)
VH: EVQLVESGGGLVQPGGSLRLSCAVSGFTFSSYAMSWVRQAPGKGLEWVSSITGGGGGIYYADSVKGRFTISRDNSKNTVYLQMNSLRAEDTAVYYCAKDRISITIRPRYFGLDFWGQGTTVTVSS
VL: DIVMTQSPLSLPVTPGEPASISCRSSQNVVYGNGYNYLDWYLQKSGQSPQLLIYLGNNVAAGVPDRFSGSGSGTDFTLKISRVEAEDVGFYYCMQSLKAPYTFGQGTKLEIKR
notes: also called S1E6 light chain mutant L28C9
- Kd [1]: 8.4 nM
- koff [1]: 0.00594 s⁻¹
- kon [1]: 706000 M⁻¹ s⁻¹
- IC50 values in inhibition of IL-13 (SEAP, HEK-Blue IL-4/IL-13 cells) [2]: 0.0121 nM
- IC50 values in inhibition of IL-4 (SEAP, HEK-Blue IL-4/IL-13 cells) [3]: 0.0494 nM
- fold of IC50 in inhibition of IL-4 induced CD23 expression on PBMCs against L18D7 [8]: 2.3 fold
- IC50 values in inhibition of IL-4 (IL-4 induced proliferation of TF-1 cells, CellTiter-Glo) [4]: 0.129 nM
- IC50 values in inhibition of CD23 expression on human PBMCs (IL-4 stimulated, flow cytometry) [5]: 0.0635 nM
- Kd [6]: 0.586 nM
- koff [6]: 0.000194 s⁻¹
- kon [6]: 331000 M⁻¹ s⁻¹
- IC50 (read off the curve) [7]: ~4 nM
